The text below walks through data of the nanobody polyreactivity screen of Harvey et al. (2022).

The nature of the data set: yeast display, Sf9 membrane polyspecificity reagent, FACS + sequencing; frameworks hold sequencing errors. A digest of the protocol: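 Sorting gates, low and high (top ~1%), were placed on anti-HA fluorescence to track expression and on streptavidin fluorescence to track reagent binding. A clone's polyreactivity label is taken from the gate it came out of. The reagent was 10% biotinylated, detergent-solubilized Sf9 membrane, applied for 1 hour at 4 °C to galactose-induced yeast display cells.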
“QVQLVESGGGLVQAGGSLRLSCAASGFTLRRNAIGWYRQAPGKERELVAAISSSGSTYYADSVKGRFTISRDNAKNTVYLQMYSLKPEDTAVYYCAAQPGRRAGRSGFDYWGQGTQVNVSS”: the “polyreactivity (PSR sort gate)” value is listed as “high polyreactivity”.

For the sequence “QVQLVESGGGLVQAGGSLRLSCAASGRIFRPNAMGWYRPAPGKERELVAAISYSGATTYYADSVKGRFTISRDNAKNTVYLQMNSLKPEVTAVYYCAAGGTSGQEFGYWGQGTQVTVSS”, the “polyreactivity (PSR sort gate)” value was “low polyreactivity”.

For the sequence “QVHLVESGAGLVQAGGSLRLSCASSGFTFKAYAMGWYRQAPGKERELVAAITKSGGRTFYADSVKGRFTISRDNAKNTVYLQMNSLKPEDTAVYYCAASYTVYYWGQGTKVTVSS”, the “polyreactivity (PSR sort gate)” value is “high polyreactivity”.

On to “QVQLVESGGGLVQAGGSLRLSCAASGRTFRVYAMGWYRQAPGKERELVAAIRTDDSTNYADSVKGRFTISRDNAKNTVYLQMNSLKPEDTAVYYCNAEGQFTWLGRRRHKFEYWGQGTQVTVSS”, for which the “polyreactivity (PSR sort gate)” value is on record as “low polyreactivity”.

For the sequence “QVQLVESGGGLVQAGGSLRLSCAASGFIFYQYAMGWYRQAPGKERELVAAISKSGGNTYYADSVKGRFTISRDNAKNTVYLQMNSLKPEDTAVYYCAADRGQRGMYYWGQGSQVTVSS”, the “polyreactivity (PSR sort gate)” value is “high polyreactivity”.

As to “QVQLVESVGGLVQAGGSLRLICAASGSIFDLNAMGWYRQAPGKEREFVAAISSGGGTYYADSVKGRFTISRDNAKNTVYLQKNSLKPEDTAVYYCAFELPELYYYFAYEYWGQGTQVTVSS”, the “polyreactivity (PSR sort gate)” value is given as “high polyreactivity”.

Turning to “QVQLVESGGGLVQAGVSLRLSCAASASTFTKYAMGWYRQAPGKERELVAAITASGGNTYYADSVKGRFTISRDNAKNTVYLQMYSLKPEDTAVYYCATGYHRWSSWALDYWGQGTQVTVSS”, the “polyreactivity (PSR sort gate)” value is “high polyreactivity”.

Turning to “QVQLVESGGGLVQAGGSLRLSCAASGSTFQGNAMGWYRQAPGKERELVAAISTSGGRTRYADSVKGRFTISRDKAKNTVYLQMNSLKPEDTAVYHCATTYWYGKRPKMYYWGQGTQVTVSS”, the “polyreactivity (PSR sort gate)” value is listed as “high polyreactivity”.

For “QVQLVESGGGIVQAGGSLRLSCAASGFIISPNAMGWYRHAPGKEREFVAAIRYSGTSTSYADSVKGRFTISRDNGKNTVYLQMNSLKPEDTAVYYCAAQYRQRTGMYYWGQGSQVTVSS”, the “polyreactivity (PSR sort gate)” value is given as “high polyreactivity”.

Consider “QVQLVESGVGLVQAGGTLRLSCAPSGSTFSVYAMGWYRQPPGKERELVADITRGGSTYADSVKGRFTISRDNAKITVYLQMNSLKPEDTAVYYCAGEEVTPYPLYWSTREYDYWGQGTQVTVSS”, for which the “polyreactivity (PSR sort gate)” value is given as “low polyreactivity”.

Regarding “QVQHVESGGGLVQAGRSLRLICAASGRNSKGYAMAWDRQAPGKERELVAAYADSVKGRFTIARDNAKNTVYLQMNSLKPEDTAVYYCNADYDQVSRVGYVYWAYYYWGQGTQVTVSS”, the “polyreactivity (PSR sort gate)” value was “low polyreactivity”.

Turning to “QVQLVESGGGLVQAGGSLRLSCAASGSTFDDNAMGWYRQAPGKERELVASINYSTGSTYYADSVKGRFTISRDNAKNTVYLQMNSLKPEDTAVYYCAKDLRRYLSWWYRYPYDYWGQGTQVTVSS”, the “polyreactivity (PSR sort gate)” value is “low polyreactivity”.

On to “QVQLVESGGGLVQAGGSLRLICAASGLIFVRYAMGWYRQAPGKERELVATITWSGGTTYADSVKGRFTISRDNAKNTVYLQMNSLNPEDTAVYYCAVEWPAWTDSDYPVGGHAFGYWGQGTQVTVSS”, for which the “polyreactivity (PSR sort gate)” value was “low polyreactivity”.

For “QVQLVESGGGLVHAGGSLRLSCAASGFTFRYGMGWYRQAPRKERELVAAISNTGGSTYYADSVKGRFTISRDNAKNTVYLKMNSLKPEDTSVYYCAAAGGLWWVFYALDYWGQGTQVSVSS”, the “polyreactivity (PSR sort gate)” value is “low polyreactivity”.

Turning to “QVQLVESGGGLVQAGGSLRLSCAASGRIFRYYAMGWSRQAPGKERELVADISRRGGSTYYADSVKGRFTISRDNAKNTVYLQMNSLKPEDTAVYYCNARWYRTGSTYHEDYWGQGTQVTLSS”, the “polyreactivity (PSR sort gate)” value was “high polyreactivity”.

On to “QVQLVESGGGLVQAGGSLRLSCAASGSTFWPYAMGWYRQAPGKERELVAAISSSGGSTYYADSVKGRFTISRDNAKNTVYLQMNSLKPEDTAVYYCNKDYHRPYGGGSKGDYWGQGTLVTVSS”, for which the “polyreactivity (PSR sort gate)” value was “low polyreactivity”.

Consider “QDQLVESVGGLVQAGVSLRLSCAASGGTFDVNAMGWYRQATGKERELVATISGGGSTNYADSVKGRFTISRDNAKNTVYLQMNSLKPEETAVYYCAAESEPIRNRERDYWGQGTQVTVSS”, for which the “polyreactivity (PSR sort gate)” value is listed as “low polyreactivity”.

For the sequence “QVQLVESGGGLDQAGGRLRLICAASGRTFTTYAMGWNRQAPGKERELVASISRRGGSTYYADSVKGRFTISRDNAKNTVYLQMTSLKPEDTAVYYCAAKTGTYRGRQVYTYGYWGQGTQVTVSS”, the “polyreactivity (PSR sort gate)” value is listed as “high polyreactivity”.

On to “QVQLVESGGGLVQAGGSLRLSCDASGFIFNAYAMGWYRQAPGKERELVAAISTRGSNTYYADSVKGRFTISRDNAKNTVYLQMNSLKPDDTAVYYCAARGYVTFSKSNYWGQGTQVTVSS”, for which the “polyreactivity (PSR sort gate)” value was “high polyreactivity”.

As for “QVQLVESGGGLVQAGGSLRLSCAASGSIFKYYVMGWYRQAPGKERELVAAITRGGRTYYADSVKGRFTISRDNAKNTVYLQMNSLKPEDTAVYYCARSLQTTSGIIPYDYWGQGTQVTVSS”, the “polyreactivity (PSR sort gate)” value was “high polyreactivity”.

As to “QLHLVESGGGLVQAGGSLRLSCAASGIIFWYNDMGWYRQAPGKESELVAAISTGGSTNYADSVKGRFTISRDNAKNTVYLQMNSLKPEDTAVYYCAGDWHRAYGGYDYWGEGTQVTVSS”, the “polyreactivity (PSR sort gate)” value is listed as “low polyreactivity”.

Take “QVQLVESGGGLVQAGGSLRLSCAASGSTFAPYAMGWYRQAPGKETELVARITGSGGGTTYADSVKGRFTISRDNAKNTVYLQMNSLKPEDTAVYYCAAPRASQYGDDYWGQGTQVTVSS”: the “polyreactivity (PSR sort gate)” value was “high polyreactivity”.

As to “QVQLVESGGGLVQAGGSLRLTCAASGSIFSYYAMGWYRQAPGKERELVADISFTGDSTFYADSVKGRFTISRDNAKNTVYLQMNSLKPEDTADYYCAKDEIMAVYFEYDYWGQGTQVTVSS”, the “polyreactivity (PSR sort gate)” value is “low polyreactivity”.

Take “QVKLVESGGVLVQAGGSLRLSCAASAFTFRWYSMGWYRQATGKERELVARISWDGGSTYYADSVKGRFTISRDNAKNTVYVQMNSLKPEDTAVYYCAIDWYYLRRNYDYWGQGTQVTLSS”: the “polyreactivity (PSR sort gate)” value is given as “high polyreactivity”.

Consider “QVQLVESGGGLVQAGGSLRLSCAASGRILRHNAMGWYRQAPGKERELVAAITRSGGRTYYADSVKGRFTISRDNAKNTVYLQMNSLKPEDTAVYDCAAGDYGWVPYNLRGSRMNYWGQGTQVTVSS”, for which the “polyreactivity (PSR sort gate)” value is recorded as “high polyreactivity”.

Turning to “QVQLVESGGGLVQAGGSLRLSCAASGRIFDLNAMGWYRQAPGKERELVASITTSTGSTYYADSVKGRFTISRDNAKNTVYLQMNSLKPEDTAVYYCAADKSTHPFPSDPGYGYWGQGTQVTVSS”, the “polyreactivity (PSR sort gate)” value is “low polyreactivity”.

Turning to “QVQLVESGGGLVQAGGSLRLSCAASGFIFHRNAMGWYRQAPGKERELVAAITRSSTSTYYADSVKGRFTISRDNAKNTVYLQMNSLKPEDTAVYYCNARYPSADDWGQGTQVTVSS”, the “polyreactivity (PSR sort gate)” value is on record as “high polyreactivity”.

Regarding “QDQLVESGGGLVQAGGSLRLSCAASGRILLDNAMGWYRQAPGKERELVAAISSGGRTYYADSVKGRFTISRDNAKNTVYLQLNSLKPEDTAVYYCAVSGGFYWGQGTQVTVSS”, the “polyreactivity (PSR sort gate)” value is recorded as “high polyreactivity”.

Regarding “QVQLVESGGGLVQAGGSLRLSCAASGSIIWLYAMGWYRQAPGKERELVAAISSGGSTYYADSVKGRFTISRDNAKNTVYLQMNSLKPEDTAVYYCNVDYWQPWQYDYWGQGTQVTVSS”, the “polyreactivity (PSR sort gate)” value is “high polyreactivity”.

In the case of “QVQLVESGGGLVQAGGSLRLSCAASGRTLPATGMGWYRQAPGKERELVAAINWRGGITYYADSVKGRFTISRDNAKNTVYLQMNSLKPVDTAVYYCARLRYFLLNGSLRYGTSDRDYWGQGTQVTVSS”, the “polyreactivity (PSR sort gate)” value is “high polyreactivity”.
